{"source": "the supplement of paper PMC7125110", "parents": {"B1": {"name": "glmS ribozyme (parent)", "chain": "AUAAAAGCGCCAGAACUACAGAAAUGUAGUUGACGAGGAGGAGGUUUAUCGAAUUUUCGGCGGAUGCCUCCAAA"}}, "note": "± gives the standard error. This sample holds only a part of the variants without activity."}
{"variants_of": "B1", "test": "self-cleavage kobs at 2500 uM GlcN6P; higher = faster cleavage; RNA array", "conditions": "with glucosamine-6-phosphate", "method_in_brief": "(§1)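 Tiles bearing barcoded ribozyme variants, transcribed in situ by E. coli RNA polymerase on sequenced MiSeq chips, were imaged over ~14 h at 37 °C using a hybridised Cy3 probe. Glucosamine-6-phosphate was supplied at 40 μM to 10 mM in HEPES/KCl/Mg(OAc)2 buffer. kobs came from one- or two-exponential decay fits to normalised per-tile medians, and weighted Michaelis–Menten fits then provided kcat and KM.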", "units": {"self-cleavage kobs at 2500 uM GlcN6P": "s⁻¹"}}
{"variant": "A15U G35U C67G", "self-cleavage kobs at 2500 uM GlcN6P": "< 1e-05"}
{"variant": "A14G U30A G41C", "self-cleavage kobs at 2500 uM GlcN6P": "0.000337 ± 0.00013"}
{"variant": "A12U A36C G40U U46A C61G", "self-cleavage kobs at 2500 uM GlcN6P": "< 1e-05"}
{"variant": "A14U G32U A53G", "self-cleavage kobs at 2500 uM GlcN6P": "0.000242 ± 7.5e-05"}
{"variant": "A15G A52U C70U", "self-cleavage kobs at 2500 uM GlcN6P": "0.000255 ± 6.5e-05"}
{"variant": "C11U G43U U47G", "self-cleavage kobs at 2500 uM GlcN6P": "< 1e-05"}
{"variant": "C16G G51A G60A G63A C70A", "self-cleavage kobs at 2500 uM GlcN6P": "4.28e-05 ± 1.9e-05"}
{"variant": "A14U G32A G38U C50G C71G", "self-cleavage kobs at 2500 uM GlcN6P": "0.000179 ± 3.5e-05"}
{"variant": "A14U C50A A53G C70A", "self-cleavage kobs at 2500 uM GlcN6P": "7.44e-05 ± 1.4e-05"}
{"variant": "C11U G44U U69G", "self-cleavage kobs at 2500 uM GlcN6P": "< 1e-05"}
{"variant": "A14C G29C G44C U49G G59C C71U", "self-cleavage kobs at 2500 uM GlcN6P": "< 1e-05"}
{"variant": "A12U G44C A53U", "self-cleavage kobs at 2500 uM GlcN6P": "6.46e-05 ± 1.9e-05"}
{"variant": "G13A C34G G35A G41A U65A G66U", "self-cleavage kobs at 2500 uM GlcN6P": "< 1e-05"}
{"variant": "C16G U30A G35U A36C A53U", "self-cleavage kobs at 2500 uM GlcN6P": "< 1e-05"}
{"variant": "C11U G35C U47G G63A", "self-cleavage kobs at 2500 uM GlcN6P": "< 1e-05"}
{"variant": "A14G A48G C71U", "self-cleavage kobs at 2500 uM GlcN6P": "0.000156 ± 5.8e-05"}
{"variant": "A12U A14G U46A C50G", "self-cleavage kobs at 2500 uM GlcN6P": "< 1e-05"}
{"variant": "A12G G41A C50A", "self-cleavage kobs at 2500 uM GlcN6P": "< 1e-05"}
{"variant": "C16A A36G U65G", "self-cleavage kobs at 2500 uM GlcN6P": "< 1e-05"}
{"variant": "A14G C58U G66U C67G", "self-cleavage kobs at 2500 uM GlcN6P": "7.46e-05 ± 3.2e-05"}
{"variant": "A14C U45C", "self-cleavage kobs at 2500 uM GlcN6P": "0.000604 ± 0.00025"}
{"variant": "C11U G29C U31A", "self-cleavage kobs at 2500 uM GlcN6P": "< 1e-05"}
{"variant": "C11U U55A C58G", "self-cleavage kobs at 2500 uM GlcN6P": "5.84e-05 ± 1.6e-05"}
{"variant": "C16G G32C G41U U69C", "self-cleavage kobs at 2500 uM GlcN6P": "< 1e-05"}
{"variant": "G13A C16U G29U", "self-cleavage kobs at 2500 uM GlcN6P": "5.93e-05 ± 2e-05"}
{"variant": "A15C G40U A42C", "self-cleavage kobs at 2500 uM GlcN6P": "< 1e-05"}
{"variant": "A12G A39U U49G U55G", "self-cleavage kobs at 2500 uM GlcN6P": "< 1e-05"}
{"variant": "A14U A33U A36C", "self-cleavage kobs at 2500 uM GlcN6P": "< 1e-05"}
{"variant": "G13U A39G C71A", "self-cleavage kobs at 2500 uM GlcN6P": "0.000144 ± 4.9e-05"}
{"variant": "C16A U31A A39G U57C G60U", "self-cleavage kobs at 2500 uM GlcN6P": "< 1e-05"}
{"variant": "A14C A39U G41U U65G", "self-cleavage kobs at 2500 uM GlcN6P": "< 1e-05"}
{"variant": "A15G C34G A42U C67G", "self-cleavage kobs at 2500 uM GlcN6P": "< 1e-05"}
{"variant": "G13A A33U A53C", "self-cleavage kobs at 2500 uM GlcN6P": "< 1e-05"}
{"variant": "A14G C16U A36G", "self-cleavage kobs at 2500 uM GlcN6P": "4.05e-05 ± 1.5e-05"}
{"variant": "C16G G37U A42G", "self-cleavage kobs at 2500 uM GlcN6P": "< 1e-05"}
{"variant": "C16U U46C U56C", "self-cleavage kobs at 2500 uM GlcN6P": "0.000416 ± 7.9e-05"}
{"variant": "A12G G40A G60A U69G", "self-cleavage kobs at 2500 uM GlcN6P": "< 1e-05"}
{"variant": "G13A G44U A64U", "self-cleavage kobs at 2500 uM GlcN6P": "< 1e-05"}
{"variant": "A12G A36C G38A A64U", "self-cleavage kobs at 2500 uM GlcN6P": "< 1e-05"}
{"variant": "A12U A42G A64U", "self-cleavage kobs at 2500 uM GlcN6P": "6.81e-05 ± 2.1e-05"}
{"variant": "A14G C16U A53U", "self-cleavage kobs at 2500 uM GlcN6P": "0.0165 ± 0.0044"}
{"variant": "A14U A36U C71U", "self-cleavage kobs at 2500 uM GlcN6P": "< 1e-05"}
{"variant": "A15C G32C U55C U57C U65C", "self-cleavage kobs at 2500 uM GlcN6P": "< 1e-05"}
{"variant": "A14C U31G A64C", "self-cleavage kobs at 2500 uM GlcN6P": "6.13e-05 ± 2.2e-05"}
{"variant": "C16U G37A U46C U56G", "self-cleavage kobs at 2500 uM GlcN6P": "0.000119 ± 2.7e-05"}
{"variant": "A12U G41C U46G C68A", "self-cleavage kobs at 2500 uM GlcN6P": "< 1e-05"}
{"variant": "A12U A15C G44U", "self-cleavage kobs at 2500 uM GlcN6P": "4.81e-05 ± 1.7e-05"}
{"variant": "A14C C50A U54C", "self-cleavage kobs at 2500 uM GlcN6P": "< 1e-05"}
{"variant": "C11U U31C C50A", "self-cleavage kobs at 2500 uM GlcN6P": "< 1e-05"}
{"variant": "A14C G21U G26U A36C", "self-cleavage kobs at 2500 uM GlcN6P": "< 1e-05"}
{"variant": "A14U U47G C68U", "self-cleavage kobs at 2500 uM GlcN6P": "0.000197 ± 3.4e-05"}
{"variant": "G13A C34A A39G G59A G62C", "self-cleavage kobs at 2500 uM GlcN6P": "< 1e-05"}
{"variant": "G13U A14G A36G U55A", "self-cleavage kobs at 2500 uM GlcN6P": "< 1e-05"}
{"variant": "A12C U56G A64C", "self-cleavage kobs at 2500 uM GlcN6P": "6.67e-05 ± 2.1e-05"}
{"variant": "A14U U55G C58G", "self-cleavage kobs at 2500 uM GlcN6P": "5.25e-05 ± 1.2e-05"}
{"variant": "G13A A14U U56A", "self-cleavage kobs at 2500 uM GlcN6P": "0.000412 ± 0.0001"}
{"variant": "G13U A39G U47G C71A", "self-cleavage kobs at 2500 uM GlcN6P": "5.73e-05 ± 1.7e-05"}
{"variant": "A15C G66C", "self-cleavage kobs at 2500 uM GlcN6P": "0.000277 ± 0.00013"}
{"variant": "A14U U45A C71G", "self-cleavage kobs at 2500 uM GlcN6P": "0.000196 ± 5.4e-05"}
{"variant": "A14G C16A U45C G66C", "self-cleavage kobs at 2500 uM GlcN6P": "0.000167 ± 3.4e-05"}
{"variant": "A15G U45G U46C", "self-cleavage kobs at 2500 uM GlcN6P": "0.00283 ± 0.001"}
{"variant": "G13U U55A C58A", "self-cleavage kobs at 2500 uM GlcN6P": "0.001 ± 0.00012"}
{"variant": "A15U U45A U57C", "self-cleavage kobs at 2500 uM GlcN6P": "4.29e-05 ± 1.9e-05"}
{"variant": "C16U A48G A53G", "self-cleavage kobs at 2500 uM GlcN6P": "9.32e-05 ± 2.7e-05"}
{"variant": "C16G G37U G44U U47A G51C C68A", "self-cleavage kobs at 2500 uM GlcN6P": "< 1e-05"}
{"variant": "C11U U30G U45G", "self-cleavage kobs at 2500 uM GlcN6P": "0.000105 ± 4e-05"}
{"variant": "C11U U30G U45A", "self-cleavage kobs at 2500 uM GlcN6P": "0.00111 ± 0.00024"}
{"variant": "C16U G43A C67A U69A", "self-cleavage kobs at 2500 uM GlcN6P": "6.4e-05 ± 2.1e-05"}
{"variant": "G13U A14C G32U C61G", "self-cleavage kobs at 2500 uM GlcN6P": "< 1e-05"}
{"variant": "A15G A39U G40A C61A", "self-cleavage kobs at 2500 uM GlcN6P": "< 1e-05"}
{"variant": "A15G G32A C58G", "self-cleavage kobs at 2500 uM GlcN6P": "8.81e-05 ± 2.9e-05"}
{"variant": "A12G A48C C50U", "self-cleavage kobs at 2500 uM GlcN6P": "< 1e-05"}
{"variant": "A12G U31C U54C", "self-cleavage kobs at 2500 uM GlcN6P": "3.97e-05 ± 1.2e-05"}
{"variant": "A12G A48G U55C U57G", "self-cleavage kobs at 2500 uM GlcN6P": "< 1e-05"}
{"variant": "G13C C34G U49C C71A", "self-cleavage kobs at 2500 uM GlcN6P": "< 1e-05"}
{"variant": "A15G G32A C71G", "self-cleavage kobs at 2500 uM GlcN6P": "0.000277 ± 0.0001"}
{"variant": "A12C G13C A42U U49C", "self-cleavage kobs at 2500 uM GlcN6P": "< 1e-05"}
{"variant": "G13U G35U U54A", "self-cleavage kobs at 2500 uM GlcN6P": "< 1e-05"}
{"variant": "A12U A39G U55C", "self-cleavage kobs at 2500 uM GlcN6P": "0.0482 ± 0.021"}
{"variant": "G13U G38U U54G G62A", "self-cleavage kobs at 2500 uM GlcN6P": "< 1e-05"}
{"variant": "A12G G29C G35U A39U G41C A64G", "self-cleavage kobs at 2500 uM GlcN6P": "< 1e-05"}
{"variant": "A14U G43U C68G", "self-cleavage kobs at 2500 uM GlcN6P": "0.0033 ± 0.00062"}
{"variants_of": "B1", "test": "self-cleavage kobs at 10000 uM GlcN6P; higher = faster cleavage; RNA array", "conditions": "with glucosamine-6-phosphate", "method_in_brief": "as §1", "units": {"self-cleavage kobs at 10000 uM GlcN6P": "s⁻¹"}}
{"variant": "A14C U45C", "self-cleavage kobs at 10000 uM GlcN6P": "0.000368 ± 6.5e-05"}
{"variant": "G13U A39G C71A", "self-cleavage kobs at 10000 uM GlcN6P": "0.000285 ± 6.4e-05"}
{"variant": "A14C A39U G41U U65G", "self-cleavage kobs at 10000 uM GlcN6P": "< 1e-05"}
{"variant": "A15C G32C U55C U57C U65C", "self-cleavage kobs at 10000 uM GlcN6P": "< 1e-05"}
{"variant": "A12U G41C U46G C68A", "self-cleavage kobs at 10000 uM GlcN6P": "< 1e-05"}
{"variant": "G13A A14U U56A", "self-cleavage kobs at 10000 uM GlcN6P": "0.000631 ± 0.00023"}
{"variant": "A15G G32A C71G", "self-cleavage kobs at 10000 uM GlcN6P": "0.000201 ± 3.3e-05"}
